The supplement of paper PMC10724198
± gives the standard deviation of the averaged measurements.

Tests used:
[1] = test system: Saccharomyces cerevisiae; assay: protein stability index of tFT-peptide fusion (C-terminal peptide) (PSI (0-1 scale)); higher = more stable (slower turnover); conditions: genetic background: wild type; temperature: 30 C
[2] = test system: Saccharomyces cerevisiae; assay: as above
Experimental: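 MPS profiling in S. cerevisiae of the tFT-X12 degron library: putative degron peptides plus stable controls, 12 aa, fused to the C-terminus of a sfGFP-mCherry timer. Cells are FACS-sorted into 8 mCherry/sfGFP bins and deep-sequenced. PSI runs from 0 (unstable) to 1 (stable). Backgrounds are wild type, das1Δ and doa10Δ at 30 °C, and wild type, das1Δ, cdc34-1 and cdc53-1 at 37 °C; 2-3 technical replicates each.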

[3] = genetic background: cdc34-1, temperature: 37 C
[4] = genetic background: cdc53-1, temperature: 37 C
[5] = genetic background: das1 deletion, temperature: 30 C
[6] = genetic background: das1 deletion, temperature: 37 C
[7] = genetic background: doa10 deletion, temperature: 30 C
[8] = genetic background: wild type, temperature: 30 C
[9] = genetic background: wild type, temperature: 37 C
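Note: PSI is a weighted mean of sequencing reads over stability bins, variants kept only with over 10 reads, mCherry proximal and sfGFP distal, peptide attached via GGGS linker.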

| Sequence | protein stability index [1] | protein stability index [2, 3] | protein stability index [2, 4] | protein stability index [2, 5] | protein stability index [2, 6] | protein stability index [2, 7] | protein stability index [2, 8] | protein stability index [2, 9] |
| --- | --- | --- | --- | --- | --- | --- | --- | --- |
| RWVFAGVGLFVG | 0.502 ± 0.028 | 0.691 ± 0.071 | 0.732 ± 0.016 | 0.605 ± 0.0071 | 0.7241 ± 0.0046 | 0.353 ± 0.043 | 0.376 ± 0.025 | 0.598 ± 0.024 |
| SCFDRQIFVPVC | 0.442 ± 0.013 | 0.358 ± 0.0078 | 0.3925 ± 0.001 | 0.302 ± 0.033 | 0.461 ± 0.013 | 0.274 ± 0.0059 | 0.308 ± 0.032 | 0.4173 ± 0.0038 |
| SDLQVMKLRSVC | 0.398 ± 0.067 | 0.717 ± 0.048 | 0.742 ± 0.045 | 0.619 ± 0.025 | 0.714 ± 0.026 | 0.185 ± 0.007 | 0.191 ± 0.013 | 0.456 ± 0.021 |
| SFFYFVFYYLSF | 0.2916 ± 0.0027 | 0.161 ± 0.042 | 0.17 ± 0.019 | 0.259 ± 0.015 | 0.364 ± 0.017 | 0.253 ± 0.016 | 0.204 ± 0.033 | 0.308 ± 0.01 |
| SFIFFVSCFFIF | 0.3325 ± 0.0024 | 0.274 ± 0.043 | 0.378 ± 0.011 | 0.294 ± 0.029 | 0.451 ± 0.024 | 0.263 ± 0.0092 | 0.266 ± 0.017 | 0.416 ± 0.016 |
| SFLRVRSLISCS | 0.294 ± 0.022 | 0.252 ± 0.026 | 0.257 ± 0.035 | 0.223 ± 0.025 | 0.404 ± 0.021 | 0.168 ± 0.0032 | 0.204 ± 0.026 | 0.348 ± 0.013 |
| SFSRLWSLFRCL | 0.244 ± 0.00058 | 0.462 ± 0.041 | 0.68 ± 0.026 | 0.682 ± 0.014 | 0.752 ± 0.014 | 0.15 ± 0.0057 | 0.13 ± 0.036 | 0.31 ± 0.038 |
| SFVCFSYYIVNI | 0.51 ± 0.03 | 0.453 ± 0.021 | 0.482 ± 0.005 | 0.377 ± 0.021 | 0.564 ± 0.022 | 0.381 ± 0.023 | 0.363 ± 0.027 | 0.548 ± 0.049 |
| SFVLLSSFLVFV | 0.323 ± 0.013 | 0.249 ± 0.016 | 0.272 ± 0.042 | 0.262 ± 0.02 | 0.39553 ± 9.9e-06 | 0.275 ± 0.0036 | 0.241 ± 0.014 | 0.355 ± 0.0082 |
| SGFLNVGYLWVC | 0.239 ± 0.069 | 0.5625 ± 0.00014 | 0.635 ± 0.0083 | 0.482 ± 0.025 | 0.644 ± 0.017 | 0.149 ± 0.012 | 0.175 ± 0.02 | 0.308 ± 0.02 |
| SIFLCRLQNLLI | 0.389 ± 0.077 | 0.637 ± 0.0071 | 0.742 ± 0.023 | 0.632 ± 0.0083 | 0.734 ± 0.018 | 0.19 ± 0.017 | 0.209 ± 0.035 | 0.407 ± 0.0057 |
| SILVSIFILAMQ | 0.189 ± 0.019 | 0.205 ± 0.029 | 0.311 ± 0.0043 | 0.229 ± 0.043 | 0.412 ± 0.0063 | 0.199 ± 0.008 | 0.219 ± 0.048 | 0.355 ± 0.015 |
| SIRVIVAVRNIS | 0.431 ± 0.052 | 0.621 ± 0.033 | 0.648 ± 0.041 | 0.554 ± 0.023 | 0.663 ± 0.0092 | 0.21 ± 0.015 | 0.239 ± 0.038 | 0.4346 ± 0.0024 |
| SISVQCSMLRVL | 0.331 ± 0.0089 | 0.456 ± 0.036 | 0.47 ± 0.0037 | 0.389 ± 0.048 | 0.482 ± 0.0086 | 0.303 ± 0.02 | 0.294 ± 0.018 | 0.387 ± 0.038 |
| SLARLRRICFNT | 0.3604 ± 0.0024 | 0.632 ± 0.042 | 0.685 ± 0.0072 | 0.648 ± 0.031 | 0.719 ± 0.023 | 0.254 ± 0.011 | 0.27 ± 0.042 | 0.469 ± 0.021 |
| SLRPFFPPLPRP | 0.666 ± 0.28 | 0.631 ± 0.06 | 0.729 ± 0.0088 | 0.69 ± 0.033 | 0.7305 ± 0.0014 | 0.723 ± 0.026 | 0.702 ± 0.031 | 0.7187 ± 0.0031 |
| SLVPSIFLFRIF | 0.4516 ± 0.0032 | 0.566 ± 0.042 | 0.613 ± 0.0084 | 0.544 ± 0.028 | 0.682 ± 0.0094 | 0.323 ± 0.0096 | 0.307 ± 0.022 | 0.467 ± 0.014 |
| SLVVMGSLWLRI | 0.415 ± 0.0096 | 0.275 ± 0.15 | 0.162 ± 0.093 | 0.346 ± 0.081 | 0.463 ± 0.024 | 0.468 ± 0.052 | 0.314 ± 0.077 | 0.425 ± 0.07 |
| SMGVLITYLVQV | 0.45 ± 0.04 | 0.399 ± 0.021 | 0.461 ± 0.012 | 0.324 ± 0.024 | 0.51 ± 0.015 | 0.25 ± 0.007 | 0.288 ± 0.033 | 0.452 ± 0.0061 |
| SMPWFWFVRGIG | 0.461 ± 0.0082 | 0.497 ± 0.041 | 0.531 ± 0.0014 | 0.5 ± 0.017 | 0.557 ± 0.0094 | 0.438 ± 0.032 | 0.417 ± 0.013 | 0.5186 ± 0.0039 |
| SNFDVRRLLVIQ | 0.455 ± 0.033 | 0.616 ± 0.073 | 0.702 ± 0.038 | 0.588 ± 0.021 | 0.697 ± 0.0065 | 0.29 ± 0.0061 | 0.329 ± 0.039 | 0.54 ± 0.014 |
| SPSTPQALSNFS | 0.715 ± 0.038 | 0.679 ± 0.0097 | 0.748 ± 0.015 | 0.657 ± 0.032 | 0.7376 ± 0.0054 | 0.664 ± 0.022 | 0.663 ± 0.025 | 0.715 ± 0.027 |
| SPTIFLPLFLTS | 0.376 ± 0.037 | 0.426 ± 0.026 | 0.415 ± 0.014 | 0.397 ± 0.028 | 0.522 ± 0.016 | 0.621 ± 0.016 | 0.4 ± 0.029 | 0.468 ± 0.0067 |
| SRARIRLPRILS | 0.333 ± 0.024 | 0.648 ± 0.033 | 0.71 ± 0.0083 | 0.661 ± 0.026 | 0.72403 ± 0.00037 | 0.208 ± 0.0047 | 0.225 ± 0.052 | 0.494 ± 0.015 |
| SSLTFTFAILLY | 0.339 ± 0.011 | 0.19 ± 0.026 | 0.188 ± 0.011 | 0.207 ± 0.025 | 0.339 ± 0.015 | 0.369 ± 0.018 | 0.219 ± 0.025 | 0.312 ± 0.052 |
| STLPACNCLKLL | 0.426 ± 0.069 | 0.663 ± 0.015 | 0.7607 ± 0.0055 | 0.622 ± 0.011 | 0.741 ± 0.013 | 0.332 ± 0.015 | 0.371 ± 0.03 | 0.565 ± 0.015 |
| STNMDNRIRTLA | 0.431 ± 0.0013 | 0.659 ± 0.011 | 0.714 ± 0.012 | 0.638 ± 0.031 | 0.72 ± 0.013 | 0.311 ± 0.0059 | 0.356 ± 0.023 | 0.556 ± 0.017 |
| SVIVSSFFLWVF | 0.288 ± 0.019 | 0.381 ± 0.051 | 0.454 ± 0.035 | 0.298 ± 0.03 | 0.482 ± 0.0072 | 0.2026 ± 0.00069 | 0.223 ± 0.029 | 0.426 ± 0.016 |
| SVLVWFLVFLVW | 0.315 ± 0.012 | 0.209 ± 0.0046 | 0.235 ± 0.02 | 0.223 ± 0.028 | 0.3733 ± 0.0037 | 0.218 ± 0.019 | 0.211 ± 0.026 | 0.321 ± 0.042 |
| SVVYCRMRVHFV | 0.285 ± 0.0052 | 0.403 ± 0.024 | 0.487 ± 0.046 | 0.373 ± 0.015 | 0.432 ± 0.014 | 0.263 ± 0.01 | 0.285 ± 0.02 | 0.3786 ± 0.0025 |
